# Assay results published in paper PMC8396674.
# Where “and” joins values, the source holds several entries; their conditions need not be identical. Equal entries are not always repeated.
# Experiments:
# [1] = target: gC1q domain of human otolin-1 (hOtolC1q), wild type (human); experiment: AUC; sedimentation velocity, 0.1, 0.25 and 0.5 mg/mL protein in 10 mM HEPES pH 7.0, 500 mM NaCl, 5% glycerol with 10 mM CaCl2, 20 °C, 50,000 rpm, c(s) analysis; also 0.25 mg/mL with 1 mM DTT
# [2] = target: gC1q domain of human otolin-1, natural variant Q426R (human); experiment: as above
# [3] = target: gC1q domain of human otolin-1, natural variant R339S (human); experiment: as above
# [4] = target: gC1q domain of human otolin-1, natural variant R342W (human); experiment: AUC; sedimentation velocity, 0.1, 0.25 and 0.5 mg/mL protein in 10 mM HEPES pH 7.0, 500 mM NaCl, 5% glycerol with 1 mM EDTA (no Ca2+), 20 °C, 50,000 rpm, c(s) analysis; also 0.25 mg/mL with 1 mM DTT
# [5] = target: gC1q domain of human otolin-1, natural variant R342W (human); experiment: AUC; sedimentation velocity, 0.1, 0.25 and 0.5 mg/mL protein in 10 mM HEPES pH 7.0, 500 mM NaCl, 5% glycerol with 10 mM CaCl2, 20 °C, 50,000 rpm, c(s) analysis; also 0.25 mg/mL with 1 mM DTT
# [6] = target: gC1q domain of human otolin-1, natural variant R402P (human); experiment: AUC; sedimentation velocity, 0.1, 0.25 and 0.5 mg/mL protein in 10 mM HEPES pH 7.0, 500 mM NaCl, 5% glycerol with 1 mM EDTA (no Ca2+), 20 °C, 50,000 rpm, c(s) analysis; also 0.25 mg/mL with 1 mM DTT
# [7] = target: gC1q domain of human otolin-1, natural variant R402P (human); experiment: AUC; sedimentation velocity, 0.1, 0.25 and 0.5 mg/mL protein in 10 mM HEPES pH 7.0, 500 mM NaCl, 5% glycerol with 10 mM CaCl2, 20 °C, 50,000 rpm, c(s) analysis; also 0.25 mg/mL with 1 mM DTT
substance,measurement,setting,value
"gC1q domain of human otolin-1 (hOtolC1q), wild type (domain or fragment)",stoichiometry N,[1],3
"gC1q domain of human otolin-1, natural variant Q426R (domain or fragment)",stoichiometry N,[2],3
"gC1q domain of human otolin-1, natural variant R339S (domain or fragment)",stoichiometry N,[3],3
"gC1q domain of human otolin-1, natural variant R342W (domain or fragment)",stoichiometry N,[4],2 and 4
same,stoichiometry N,[5],3
"gC1q domain of human otolin-1, natural variant R402P (domain or fragment)",stoichiometry N,[6],2
same,stoichiometry N,[7],2
